Test results taken from article PMC7865074.

B1: MAGUK p55 subfamily member 5, PDZ domain (N2H construct) (domain or fragment)
chain: IVRIEKARDIPLGATVRNEMDSVIISRIVKGGAAEKSGLLHEGDEVLEINGIEIRGKDVNEVFDLLSDMHGTLTFVLIPSQ
B2: Rho guanine nucleotide exchange factor 12, PDZ domain (N2H construct) (domain or fragment)
chain: CVIIQKDDNGFGLTVSGDNPVFVQSVKEDGAAMRAGVQTGDRIIKVNGTLVTHSNHLEVVKLIKSGSYVALTVQGRPPGS
B3: SH3 and multiple ankyrin repeat domains protein 2, PDZ domain (N2H construct) (domain or fragment)
chain: TVVLQKKDNEGFGFVLRGAKADTPIEEFTPTPAFPALQYLESVDEGGVAWQAGLRTGDFLIEVNNENVVKVGHRQVVNMIRQGGNHLVLKVVTVT
B4: PDZ domain-containing protein GIPC3, PDZ domain (N2H construct) (domain or fragment)
chain: EVEVTKTEDALGLTITDNGAGYAFIKRIKEGSIINRIEAVCVGDSIEAINDHSIVGCRHYEVAKMLRELPKSQPFTLRLVQ
B5: Zona Occludens 3; Tight Junction Protein 3, PDZ domain 3 (N2H construct) (domain or fragment)
chain: DTRVVRFLKGKSIGLRLAGGNDVGIFVSGVQAGSPADGQGIQEGDQILQVNDVPFQNLTREEAVQFL
B6: Regulating synaptic membrane exocytosis protein 2, PDZ domain (N2H construct) (domain or fragment)
chain: DGSVPRDSGAMLGLKVVGGKMTESGRLCAFITKVKKGSLADTVGHLRPGDEVLEWNGRLLQGATFEEVYNIILESKPEPQVELVVSR
B7: PDZ and LIM domain protein 1, PDZ domain (N2H construct) (domain or fragment)
chain: TQQIDLQGPGPWGFRLVGGKDFEQPLAISRVTPGSKAALANLCIGDVITAIDGENTSNMTHLEAQNRIKGCTDNLTLTVARSE
B8: PDZ domain-containing protein 4, PDZ domain (N2H construct) (domain or fragment)
chain: EVELYKSSHRDKLGLMVCYRTDDEEDLGIYVGEVNPNSIAAKDGRIREGDRIIQINGVDVQNREEAVAILSQEENTNISLLVARP
B9: Whirlin, PDZ domain 3 (N2H construct) (domain or fragment)
chain: LVRVKKSAATLGIAIEGGANTRQPLPRIVTIQRGGSAHNCGQLKVGHVILEVNGLTLRGKEHREAARIIAEAFKTKDRDYIDFL
B10: MPDZ, PDZ domain 6 (N2H construct) (domain or fragment)
chain: TINIAKGNSSLGMTVSANKDGLGMIVRSIIHGGAISRDGRIAIGDCILSINEESTISVTNAQARAMLRRHSLIGPDIKITYV
B11: SH3 and multiple ankyrin repeat domains protein 3, PDZ domain (N2H construct) (domain or fragment)
chain: VAVLQKRDHEGFGFVLRGAKAETPIEEFTPTPAFPALQYLESVDVEGVAWRAGLRTGDFLIEVNGVNVVKVGHKQVVALIRQGGNRLVMKVVSVT
B12: Beta-1-syntrophin, PDZ domain (N2H construct) (domain or fragment)
chain: GVKVLKQELGGLGISIKGGKENKMPILISKIFKGLAADQTQALYVGDAILSVNGADLRDATHDEAVQALKRAGKEVLLEVKYMR
B13: SH3 and multiple ankyrin repeat domains protein 1, PDZ domain (N2H construct) (domain or fragment)
chain: TVLLQKKDSEGFGFVLRGAKAQTPIEEFTPTPAFPALQYLESVDEGGVAWRAGLRMGDFLIEVNGQNVVKVGHRQVVNMIRQGGNTLMVKVVMVT
B14: Zona Occludens 3; Tight Junction Protein 3, PDZ domain 1 (N2H construct) (domain or fragment)
chain: TATLSKDPRRGFGIAISGGRDRPGGSMVVSDVVPGGPAEGRLQTGDHIVMVNGVSMENATSAFAIQILKTCTKMANITVKRPR
B15: Synaptojanin-2-binding protein, PDZ domain (N2H construct) (domain or fragment)
chain: EINLTRGPSGLGFNIVGGTDQQYVSNDSGIYVSRIKENGAAALDGRLQEGDKILSVNGQDLKNLLHQDAVDLFRNAGYAVSLRVQHRL
B16: Protein piccolo, PDZ domain (N2H construct) (domain or fragment)
chain: RIKITRDSKDHTVSGNGLGIRIVGGKEIPGHSGEIGAYIAKILPGGSAEQTGKLMEGMQVLEWNGIPLTSKTYEEVQSIISQQSGEAEICVRLDL
B17: Membrane-associated guanylate kinase, WW and PDZ domain-containing protein 2, PDZ domain 1 (N2H construct) (domain or fragment)
chain: ESVIGRNPEGQLGFELKGGAENGQFPYLGEVKPGKVAYESGSKLVSEELLLEVNETPVAGLTIRDVLAVIKHCKDPLRLKCVKQG
B18: 26S proteasome non-ATPase regulatory subunit 9, PDZ domain (N2H construct) (domain or fragment)
chain: QARDMAEAHKEAMSRKLGQSESQGPPRAFAKVNSISPGSPASIAGLQVDDEIVEFGSVNTQNFQSLHNIGSVVQHSEGKPLNVTVIRR
B19: T-lymphoma invasion and metastasis-inducing protein 2, PDZ domain (N2H construct) (domain or fragment)
chain: DVQLTKTGSVCDFGFAVTAQVDERQHLSRIFISDVLPDGLAYGEGLRKGNEIMTLNGEAVSDLDLKQMEALFSEKSVGLTLIARPPD
B20: Ligand of Numb protein X 2, PDZ domain 2 (N2H construct) (domain or fragment)
chain: QVALHKRDSGEQLGIKLVRRTDEPGVFILDLLEGGLAAQDGRLSSNDRVLAINGHDLKYGTPELAAQIIQASGERVNLTIARPG
B21: Partitioning defective 3 homolog B, PDZ domain 1 (N2H construct) (domain or fragment)
chain: TRTVEISGEGGPLGIHVVPFFSSLSGRILGLFIRGIEDNSRSKREGLFHENECIVKINNVDLVDKTFAQAQDVFRQAMKSPSVLLHVLP
B22: Rho GTPase-activating protein 21, PDZ domain (N2H construct) (domain or fragment)
chain: TVTLKRTSQGFGFTLRHFIVYPPESAIQFSYKDEENGNRGGKQRNRLEPMDTIFVKQVKEGGPAFEAGLCTGDRIIKVNGESVIGKTYSQVIALIQNSDTTLELSVMPKD
B23: PDZ domain-containing protein 2, PDZ domain 2 (N2H construct) (domain or fragment)
chain: KMELLKESDGLGIQVSGGRGSKRSPHAIVVTQVKEGGAAHRDGRLSLGDELLVINGHLLVGLSHEEAVAILRSATGMVQLVVASKE

Target: full-length (FL) NS5 protein (wt PBM) of West Nile virus (West Nile virus)
Test: split reporter (BiFC, NanoBiT); N2H split-NanoLuc in HEK-293T cells; full-length NS5 with 257 single PDZ domains; read-out NLR with NS5 minus NLR with NS5ΔPBM, three experiments; hits > 0.25

| Binder | NLR(NS5) - NLR(NS5ΔPBM) |
| --- | --- |
| B1 | 0.26 |
| B2 | < 0.25 |
| B3 | < 0.25 |
| B4 | 2.15 |
| B5 | 0.72 |
| B6 | 11.2 |
| B7 | 27.2 |
| B8 | 0.85 |
| B9 | 0.38 |
| B10 | 0.38 |
| B11 | < 0.25 |
| B12 | < 0.25 |
| B13 | 1.66 |
| B14 | 3.05 |
| B15 | < 0.25 |
| B16 | 0.57 |
| B17 | 0.26 |
| B18 | 1.21 |
| B19 | 0.65 |
| B20 | 0.25 |
| B21 | 0.42 |
| B22 | < 0.25 |
| B23 | 0.49 |
